# Where no end group is shown, it is not given here. [ ]: non-standard residue; d: D form.
# What was measured:
# [1] = test system: P. falciparum-infected erythrocytes (rosetting); format: cell-based; details: FIG. 3B; read-out: IC50, competitive inhibition of rosetting
# Procedure: (§1) The Gambian FCR-3 strain of P. falciparum was cultured according to the literature method [Trager, W. & J. Jensen (1976) Science 193:673-675]. Cultures were synchronized at the ring stage by sorbitol lysis of mature forms [Lambros, C. & J. P. Vanderberg (1980) J. Parasitology 65:418-20]. Knobless parasite cultures were produced from a knobby FCR-3 line and maintained as described previously [Crandall, I. E. et al. (1994) Cell Adhesion & Communication 2(6):503-510].
# (§2) Cytoadherence assays were carried out as described previously [Udeinya et al. (1981), supra; Crandall et al. (1991), supra] except that BTS buffer (50 mM Bis Tris, 130 mM NaCl, pH 6.6) was substituted for BTC buffer (i.e. the Ca^+ was omitted from the cytoadherence assay buffer). Rosetting was measured as described previously [Crandall et al. (1994), supra].
# (§3) In order to determine if the action of the antibody was due to the non-competitive removal of the sequence FSFCETNGLEYI [SEQ ID NO:44], the antibody's epitope, or whether it was the result of steric hindrance or induced conformational change of the protein associated with the antibody's binding, the effect of adding increased amounts of the peptide FSFCETNGLE [SEQ ID NO:26] to rosetting and cytoadherence assays was determined. […] FIG. 3A illustrates the results of adding the indicated peptides to the incubation medium of a cytoadherence assay. […]
# [2] = test system: P. falciparum-infected erythrocytes; format: cell-based; details: FIG. 3A; read-out: IC50, competitive inhibition of cytoadherence
# Procedure: as §1, §2, §3
# CD36 = CD36 (Homo sapiens (Human), UniProt P16671); test: cell-based or functional assay
# human band 3 protein = human band 3 protein (human, UniProt P02730); test: cell-based or functional assay
molecule,measurement,setting,value
"FSFCETNGLE [Peptide 2f, FSFCETNGLE]",IC50,[1],3000 nM
same,IC50,[2],4 µM
"GHPLQKTY [peptide 3d, GHPLQKTY]",50% inhibition of sickle cell binding to HUVEC,CD36,4 µg/mL
"FSFCETNGLE [peptide 2f, FSFCETNGLE]",50% inhibition of sickle cell binding to HUVEC,human band 3 protein,4 µg/mL
same,IC50 of inhibition of cytoadherence of P. falciparum-infected erythrocytes,human band 3 protein,4 µM
same,IC50 of inhibition of rosetting of P. falciparum-infected erythrocytes,human band 3 protein,3 µM
G[dH][dP][dL][dQ][dK][dT][dY] [D-isomer of peptide 3d],50% inhibition of sickle cell binding to HUVEC,CD36,4 µg/mL

# Reference: US6124262A, “Compositions and methods for reducing adhesiveness of defective red blood cells” (The Regents of the University of California, dated 2000)
